Assay: soluble fraction after stress (log2 fold change); higher = more stays soluble; pooled small domains, quantitative proteomics
Details: stress: pH 4
Outline: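 Small protein domains from pooled custom libraries were exposed to pH 4, then quantified with high-throughput quantitative proteomics. The fold change in how much of each domain remains soluble is read as aggregation propensity. It is given as log2, with higher values meaning more stayed soluble.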

Point of comparison: “HMESLNDRIKLVFKDSGLTQMDISKRLNIAQSSVSGIISGKANPSKRTLADIADRFDVNLEWLRDGTGPMK”, “soluble fraction (log2)” value 0.199. Against it:
- HMEPMNMYSSIKKVIGVVSGKGGVGKSLVTASLARMMRAKGYHVGIMDADITGPSIPKMYGLHEMA — within 0.2 log units, 0.0444
- HMEPVDYEALRKELMQKVMGLFTQSRDVGIQILSSFGAKKLSDVPDDKLVAFAASVDKALAG — within 0.2 log units, 0.138
- HMEPVQFIQFKIPDGHPWSGQLLREVRLPPGTLVVLLKHDGKNIIPNGETPLLAGDSVILSAASPT — lower, -0.459
- HMEQAAQPQTGFDPRRLKAGDAVHLLALDQRGVLLEDPKPGAESAPVSVGVAGVRVVVPLREMEALPAG — lower, -0.0942
- HMEQEVLDLLFDAIRSLPEKYRRLFDMSFEQGLKNAEIAALLHVSESAVKKQKASMIQQLRDDLLRKTGKD — lower, -0.564
- HMEQFDFTILRELRKRAGLSIGEVSAESGVSAAVISKLERNRTRAELDTLYRLARVFGITAAELLNLAEA — lower, -1.76
- HMEQIETIFLSAAPYARTHIIHLLETSELFRDKYLTIVETSNGLLIYTEDKNRLLGILNSLT — lower, -1.24
- HMEQIFTELIMDGRVLGENLHRMGVDETWLLRQLRQQGYHSAREVFLAVADANKQVAVYPVS — lower, -0.776
- HMEQINVTIQTEKGRIDKVLSEHLPNHSRSQIQQWLKEKHVTVNGETVRANYKVTAGDEIVVTIPEPEV — lower, -0.18
- HMEQISDEDTLRKMVNEVLDNNQTQLEQYKSGKTNLIGFFVGQTLKKSAGKANPSIVNKLVNEEIYI — within 0.2 log units, 0.0623
- HMEQISIETRIEQLLARLSETEASGFEELFADTSSRADLITTFLALLEMIRLKLVRVFQDGSFGPIRIYKR — lower, -1.5
- HMEQKISVPALVGRDIEEILADTEVTGNFTIKEADKRVASNRPVGEVLEQDPGTGESAVKGTIITVTVSAG — lower, -0.353
- HMEQNTKAYEQVRTLTDLLNQYRHEYYNLSAPSVSDQEYDRLFDALAALEKQTGIVMSNSPTQTVG — lower, -0.497
- HMEQPAPSTTVDILGGGRAALVTANRELGLALADDEIDYLTDSFTQLGRNPVDVELMMFAQA — lower, -0.224
- HMEQSLNTYSIRTVKESLFLAETKNLNKIEKLVEGIEGRLTLSEALVLFSDKLNAMSVLSHVNANT — lower, -0.273
- HMEQTIKKYVNVATLNFRSGPSTSYSIISTLSKGTKVEVISTTNNWSKIIYDGKIGYVSSEYLSKSI — higher, ≥ 0.43
- HMEQVPEAVGRRVRQARSDRGWTLDQLAERSEVSRRMIVNVEAGTSNASIATLLRLATALNVGLAELVA — lower, -0.685
- HMEQVVFNGTGRRKSSIARVRIMSGKGNITVNGKALDEYFGEETLKVIVRQPLTVTDTLDKYDVIATVK — lower, -0.0364
- HMEQYYVFFAGGMTIGTKEWYESILPENIATSYDDILEGKMMPASLEQIEFYNSHKDYDLYHLFYML — lower, -1.4
- HMERAFRILELFDLKQDELPITEIAERTGLPISTAHRLLSTLETLGYIAQNPDNGRYRLGLQTFVLGSR — lower, -1.3
- HMERAPAYPDGLTQREVEVLRLIASGKTDREIAEELFIGVRTVSTHVGNILNKTNSANRTEAASYANQQGL — lower, -1.53
- HMEREQNIAQGREVVQRELKRLGLTDVFTVEDIGRALKFDDIDEFLSKVGFGDIQTAKITGAIALMQQALR — lower, -0.84
- HMEREQNIEHGRAIVERELKRLGLSDVYTIADIATALRHDDVDQFLAKIGFGDIQSTQIGGAIAALQQR — lower, -0.328
- HMEREQPFAVTEAYRGMRLDRFLQAMLPRMSRAAIQDAIDNRVRLGSGRAAKASLRPAIGDTVFFGQRI — lower, -0.17
- HMERFRQVNAGMTRDDIYQLLGKPTEKTPFPLKNEEVWSWRHQADGQTVALFNIHLDPDGRVTTTSQSMDL — lower, -1.32
- HMERFVVISKDKYANLREEASTNSKVLAKVDNSYLIYNTNTYNENKDWYSVQIERDGNYYQVGYIHKSQL — lower, -1.82
- HMERLKRVTLSLNQSNYSVTEIARRLQAITGIKDITVVEDEQAVYLKVDPATFDLTLAQQAV — lower, -0.653
- HMERLLVSKINGMITEAKVSVEDVVKVVASRGHYPEVKSIDEYPDDFLSRWVVPNFKKIVEMINANKEA — within 0.2 log units, 0.239
- HMERMTSTEILTRDFLTTNSKIVKKSTIEELSEIIHVSPATIIRTVKKMGYSGFSEYKNELINQ — within 0.2 log units, 0.0482
- HMERPEVVAYRLAYASAESLRPALGLVASPSDLEIDERTNTLIVRAVPSVQERVAELVASLDI — lower, -0.889
- HMERPKSLRELALEHLRNSIIDGSLKMGQVLSERKISEELGVSKSPVREALAQLRDEGLVSIEPQKGARV — within 0.2 log units, 0.288
- HMERPLFVIEDYRRFAGNEVEISLKKGGKKIRGVIAGTPSDAEVTVRTQGGETTVPLGDVKRAHLVYV — within 0.2 log units, 0.0919
- HMERRDEINSVVSRYVSAITEGKYDLAEVDETGKLRVQTEGREVLPEALSRGTLEQFYFAFRMAVGSI — lower, -0.779
- HMERTQSIEAAREQLGEVTKDNVFETETLGALAILKENEPGEYAKIKADLKGKINMNDLERAVKKAAADQR — lower, -0.0729
- HMERYFVLVIYDIVDNKKRLKLSKYLLGYGIRVQKSAFEMMITKEKYNKLIKELPTYIEEGEDSIRLY — lower, -0.292
- HMERYLLRDNIPNALHGERLDRVIAIMTGLSRSAVSALIKSNQVLRNGQIAQSISEKVVEGDELEVHLEP — lower, -0.465
- HMESDAIAAAIAALPARYREVLLLRYDNGFSYSEISKALDMTEAAVRKTVQRAKEALQRTLQIQEEDT — lower, -0.219
- HMESDRVAHVVAPGETLFSISGKYGIGMGELVAANPVLESRPPRTGDTLLIRLPENPLPAETDAETLS — lower, -0.858
- HMESIAEIDRMNAKIFMDEFQDSLSIMQKTTNPETFFSRYDLAMERLDNMVELQQKGIKFTSDLSSLKAQ — lower, -0.564
- HMESIEGMYKISLLRKQGNAYVIFEDENKEAVEHIFPEKPTALELGTKVIEMFEYKERYDGLI — lower, -0.781
- HMESILDDFPGLGEKRKKALLEHFGSISKIKAATVGQLREVDGIGFETAAALREFLDANFPA — within 0.2 log units, 0.0668
- HMESIPDELLEAFKQDPAFKQAFYALTAGRQRGYIIHFSQPKQSQTRIGRIEKYKEQIFNGIGLN — lower, -0.125
- HMESKPLTPSEIKKLRMDANMTQAGLAEVLGMTVKAVEAWESGRNIPSGAADKILRVMQKHPSVIGMMQS — within 0.2 log units, 0.247
- HMESLSHRQKSIVDWVQKNGYASIERMAEQFEVSAQTIRRDVIELSERRILQRHHGGASLPAG — lower, -0.17
- HMESNDSNIEDDFYEGLKSMRKGDLKMSVVFFTRVIEKKPTFAEAWNRRATVYYMLGKFDKSMFDINETLK — lower, -0.17
- HMESPELIHILKEAEWQIWQQIQGLPEKQRIAMTLFAMDDLSYQEIADVMKVSVSAIESLLFRARTQLKKY — lower, -0.71
- HMESPLEQLTNRELQTLQMLGKGLSTKQIAAQLNLSVKTVETYRENLKRKLNLDSGSELIRYAIHRSNE — lower, -0.0124
- HMESPLNPTDVRRAAMDLLARREHGVEELRLKLKRRFGREEDFETIATEQLQRLVDEDLLSDTRF — lower, -0.948
- HMESRETGLPVVIISDGRILQDNLKRRGLDLSWLDKQLAEHGYPDFRDVFLLTVDEAGGVYFVPRE — lower, -0.145
- HMESSNLESQLKKGIVPNLNGLSAKDALFLLENSGFNVKLYGMGSVKKQSLEAGKKYNKGDKITLIL — within 0.2 log units, 0.219
- HMESSYKGFILDIETRQFSPTLIQRRGIAINPSGIVETTTEFSFATQEKVLIEDLKLIIDELDLRADY — lower, -2.31
- HMESTLNYSQFLSLVNEDRVAEVVIQGKELYVTDVNRSRFKVYAPPDPELIGLLRQKRVIISAKP — within 0.2 log units, 0.203
- HMESVDRIYERVRRYADDVGTAKIPMKELDDDGPLGTAVSRIRERRKRGELTEEWEARFETLPGWTWAA — lower, -0.265
- HMESWEDSNIANEFKSTIKIAEKRLAEGGDHPELLEKLEALKQAIINENQTEASKLDDQVNDILFDMDD — lower, -0.558
- HMETEAGIKAYLSSSMIKGIGPVTAQRIVERFGKRTLYVLDQMPEKLLDISGISEAKLEEILNGYRKS — lower, -0.532
- HMETFGEKDLDELIGRNVELITHDGKVREGLVDSVDRYNVSLVRYLDAGEVAMMVRRREVKAVRLK — lower, -1.12
- HMETFGLSQRELQILSQLHKGQPLKEFAASLFITESTLKTHLSAIYRKMSVKNRVQAIEKAKQSGL — lower, -0.273
- HMETGEDSLRRYFNSLPGSASKREILEDNPTVSQRTTERILQKLQAEGFIEKVGAARATRYRKVKQ — within 0.2 log units, 0.27
- HMETGELQQILEDVFSKNIGIVQDKREAAFSILMGMIMAKSRGRADGALVSTLLKKKLTEFLATSDQVR — lower, -0.196
- HMETGNEDYRVGKELAYDGNYKAATIYLMKSIKDDPNNPDAFNMLGFSHRKLGNNDEAYIYYNKALEL — lower, -0.722
- HMETKKEIIEAINELEEKYRNAIYLTSIEKLSYEETSKILGQSLSNTKNLIHRGKQQLRKILIKK — lower, -0.37
- HMETLEDHRKKTRQQLFDALSHLLQTSTFESLTMAKIAEEAGVGRTAVYNHFQDKEALLLAFITYETGQ — lower, -0.815
- HMETLETYTSRLRQLEDITNNFKGVDKSFAIQAGREIRVMVVPEQVSDADMILMARDISKAIEAELEYPGQ — lower, -0.315
- HMETLGADLRALRKSRGLTLLDMAESLGRSVGWLSQVERDLSDPSISDLREIAELLGVPISMLFRH — lower, -1.33
- HMETLKEMDSKGAINASEVNVREGAGTSSSKMYSLSKGASVDVTGIKGDWYRVHTSKGTGYVLAKYVTLVS — higher, ≥ 0.43
- HMETLYGQIVNDIMEKIESNAWPVGYVIPTESDFQKQYGVSRATVRNAILKLAHLGYLVRKKGSGTYVTRP — lower, -0.287
- HMETPEIPGLTPRQVEIMLLVGKGYSNKEIARFLTISPETVKTHLKEVFLRFGLRNRVEAIDFTRQNGL — lower, -0.358
- HMETPLSAADFKIVFGEEYEIGTDANGLPKMGSRINRQLQNRFLTWASVNKRKATMSAYQDWVASDPAAQ — lower, -0.693
- HMETQVKVPNVVGMTQSKAIAKLKESKLDYEVQEQKHDGDKGKVVDQSEAEGTYVDRGTKVIIYVSTGE — higher, ≥ 0.43
- HMETSIQFIRLEIGHNHPWVNQTLKEIPTIPGTLIAAVLRGDEDQAIIPKGDTLLKEGDSVIIGAKEYQD — lower, -1.61
- HMETSLVIQIDGAVNSPGIYQVTPGTRIFEALELAGGVREDAQTEALNLALPVYDGQRISIPSSFA — lower, -1.58
- HMETTVSYSGVVTASVLRIRKGPSVSSSVAGTLKKGTGVSIIFEDNGWGKLADGSGWVSLTYIKKNSTP — lower, -0.101
- HMETWDQAYETIKQNILNLTYPPGMPLTEAKLAEELGMSRSPVRTALRMLQTDGLIVTDYYKSMTVKEI — lower, -2.07
- HMETWKLYKRAYKKYYARYMKGNMSEADFKAWATQAAADRDAAIEQITPEIDAALKAQIIEQLREKLNR — lower, -0.134
